{
  "source": "paper PMC8501228",
  "about": "(Cell Reports, 2021)",
  "target": "SARS-CoV-2 Spike S1, 6x His-tagged recombinant protein (16-685 aa, YP_009724390.1) (SARS-CoV-2, UniProt P0DTC2 16-685)",
  "experiment": "ELISA",
  "data": [
    {"binder": "galectin-8 (LGALS8) recombinant protein (1-317 aa, AAF19370.1) (natural protein) MMLSLNNLQNIIYNPVIPFVGTIPDQLDPGTLIVIRGHVPSDADRFQVDLQNGSSMKPRADVAFHFNPRFKRAGCIVCNTLINEKWGREEITYDTPFKREKSFEIVIMVLKDKFQVAVNGKHTLLYGHRIGPEKIDTLGIYGKVNIHSIGFSFSSDLQSTQASSLELTEISRENVPKSGTPQLRLPFAARLNTPMGPGRTVVVKGEVNANAKSFNVDLLAGKSKDIALHLNPRLNIKAFVRNSFLQESWGEEERNITSFPFSPGMYFEMIIYCDVREFKVAVNGVHSLEYKHRFKELSSIDTLEINGDIHLLEVRSW", "values": [
      {"measurement": "binding result", "value": "binds"}
    ]}
  ]
}
